Reference: patent US6713247B1, “Human CNS cell lines and methods of use therefor” (Signal Pharmaceuticials, Inc., priority 1996, dated 2004)

What was measured:
clone C2 = experiment: Effects of EGF and PDGF on proliferation and survival, clone C2; type: cell-based, human; details: added to growth medium with FGF-2 and 50% CM, EGF 40 ng/mL, PDGF 20 ng/mL
Experimental: (§1) EGF and PDGF Enhance Proliferation Rate and Cell Survival. To facilitate the expansion of the human CNS clones, we identified factors that increase the proliferation rate and/or cell survival. To examine the effects of EGF and PDGF on the proliferation and survival of the human CNS clones, 40 ng/mL EGF, 20 ng/mL PDGF or both were added to the standard growth medium, which already contained FGF-2 and 50% CM, and total cell number and BrdU uptake and incorporation were assessed as described above. For clone C2, EGF or PDGF addition increased the total cell number (FIG. 11A) by approximately 2-fold. This increase in cell number was due to enhanced cell viability (decreased cell death), since there were only slight increases in proliferation rate (assessed by BrdU uptake and incorporation, FIG. 11B). […] In the case of clone C10, EGF (but not PDGF) addition increased the total cell number (FIG. 12A) by approximately 40%. […] This increase in cell number was due, at least in part, to enhanced proliferation rates; BrdU uptake and incorporation increase about 2-fold with EGF or EGF+PDGF addition (FIG. 12B), and doubling times (based on cell counts as a function of days in vitro, data not shown) decreased from 3 days (no EGF or PDGF addition) to 2 days (EGF+PDGF addition). […]

clone C10 = experiment: Effects of EGF and PDGF on proliferation and survival, clone C10; type: cell-based, human
Experimental: as §1

B1: EGF: human recombinant epidermal growth factor (protein, UniProt P01133 23-1207, looked up)
Pro-epidermal growth factor: PQHWSCPEGTLAGNGNSTCVGPAPFLIFSHGNSIFRIDTEGTNYEQLVVDAGVSVIMDFHYNEKRIYWVDLERQLLQRVFLNGSRQERVCNIEKNVSGMAINWINEEVIWSNQQEGIITVTDMKGNNSHILLSALKYPANVAVDPVERFIFWSSEVAGSLYRADLDGVGVKALLETSEKITAVSLDVLDKRLFWIQYNREGSNSLICSCDYDGGSVHISKHPTQHNLFAMSLFGDRIFYSTWKMKTIWIANKHTGKDMVRINLHSSFVPLGELKVVHPLAQPKAEDDTWEPEQKLCKLRKGNCSSTVCGQDLQSHLCMCAEGYALSRDRKYCEDVNECAFWNHGCTLGCKNTPGSYYCTCPVGFVLLPDGKRCHQLVSCPRNVSECSHDCVLTSEGPLCFCPEGSVLERDGKTCSGCSSPDNGGCSQLCVPLSPVSWECDCFPGYDLQLDEKSCAASGPQPFLLFANSQDIRHMHFDGTDYGTLLSQQMGMVYALDHDPVENKIYFAHTALKWIERANMDGSQRERLIEEGVDVPEGLAVDWIGRRFYWTDRGKSLIGRSDLNGKRSKIITKENISQPRGIAVHPMAKRLFWTDTGINPRIESSSLQGLGRLVIASSDLIWPSGITIDFLTDKLYWCDAKQSVIEMANLDGSKRRRLTQNDVGHPFAVAVFEDYVWFSDWAMPSVMRVNKRTGKDRVRLQGSMLKPSSLVVVHPLAKPGADPCLYQNGGCEHICKKRLGTAWCSCREGFMKASDGKTCLALDGHQLLAGGEVDLKNQVTPLDILSKTRVSEDNITESQHMLVAEIMVSDQDDCAPVGCSMYARCISEGEDATCQCLKGFAGDGKLCSDIDECEMGVPVCPPASSKCINTEGGYVCRCSEGYQGDGIHCLDIDECQLGEHSCGENASCTNTEGGYTCMCAGRLSEPGLICPDSTPPPHLREDDHHYSVRNSDSECPLSHDGYCLHDGVCMYIEALDKYACNCVVGYIGERCQYRDLKWWELRHAGHGQQQKVIVVAVCVVVLVMLLLLSLWGAHYYRTQKLLSKNPKNPYEESSRDVRSRRPADTEDGMSSCPQPWFVVIKEHQDLKNGGQPVAGEDGQAADGSMQPTSWRQEPQLCGMGTEQGCWIPVSSDKGSCPQVMERSFHMPSYGTQTLEGGVEKPHSLLSANPLWQQRALDPPHQMELTQ
modifications: Pro-epidermal growth factor
Question: What does the source list for B1?
Answer: increase in total cell number (clone C2): approximately 2 fold; increase in BrdU uptake and incorporation (clone C10): approximately 2 fold; increase in total cell number (clone C10; EGF 40 ng/mL added to growth medium with FGF-2 and 50% CM): approximately 40%
